pKd: −log10 of the molar value.
Assays:
[1] = target: SENP1 (415–644) (human) (UniProt Q9P0U3)
[2] = target: SENP1 C603A (415–644) (human) (UniProt Q9P0U3); test: ITC
SENP1 C603A (415–644) (human), sequence (Q9P0U3 415-644 C603A): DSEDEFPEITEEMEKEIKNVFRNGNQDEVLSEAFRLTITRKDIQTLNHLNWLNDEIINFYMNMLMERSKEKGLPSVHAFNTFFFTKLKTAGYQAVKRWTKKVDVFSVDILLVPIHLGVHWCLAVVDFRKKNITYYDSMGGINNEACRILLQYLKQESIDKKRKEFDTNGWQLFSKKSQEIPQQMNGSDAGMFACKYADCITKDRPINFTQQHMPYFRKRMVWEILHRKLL

SENP1 (415–644) (human), sequence (Q9P0U3 415-644): as the sequence (Q9P0U3 415-644 C603A) above, with A189C counted along it

Substance | apparent Km, Km(app), of cleavage by SENP1 (FRET-based protease assay) [1] | pKd [2] | dH [2] | IC50 of product inhibition of SENP1 cleavage of YFP–RanGAP1–SUMO-2–ECFP (500 nM) [1] | IC50 of product inhibition of SENP1 cleavage of YFP–SUMO-2-FL–ECFP (500 nM) [1]
YFP–RanGAP1–SUMO-2–ECFP (from UniProt P46060 418-587; P55854 1-93) (complex) | 242 nM |  |  |  | 
mature SUMO-2 (SUMO-2-GG) (from UniProt P55854 1-93) (natural protein) |  | 8.07 | -14.5 kcal/mol | 1600 nM | 2230 nM

Reference: article PMC3326531
